Source: patent US8703915B2, “Mutant proteins and methods for producing them” (Heptares Therapeutics Limited, priority 2009, dated 2014)
Substitutions are numbered along the chain they refer to. Names and notes keep the numbering of the source.

T1: OX2 receptor (Homo sapiens, UniProt O43614, F28L/I308V/Y91L)
T1 construct: made in house; host or cells: transiently transfected mammalian cells (HEK293T inferred from 'as described for M4')
T1 sequence (O43614 1-444 F28L/Y91L/I308V): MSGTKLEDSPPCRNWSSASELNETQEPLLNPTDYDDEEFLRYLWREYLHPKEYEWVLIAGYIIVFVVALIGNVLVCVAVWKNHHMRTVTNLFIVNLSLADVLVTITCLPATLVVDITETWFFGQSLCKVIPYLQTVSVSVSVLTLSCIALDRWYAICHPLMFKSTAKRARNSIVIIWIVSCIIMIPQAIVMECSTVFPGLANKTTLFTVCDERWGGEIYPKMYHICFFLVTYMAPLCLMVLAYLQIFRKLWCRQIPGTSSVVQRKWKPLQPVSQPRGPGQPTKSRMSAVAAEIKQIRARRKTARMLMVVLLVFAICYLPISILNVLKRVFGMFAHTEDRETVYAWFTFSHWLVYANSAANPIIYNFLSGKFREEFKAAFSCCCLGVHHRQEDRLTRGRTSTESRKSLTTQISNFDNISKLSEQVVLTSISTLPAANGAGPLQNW

T2: CRF1 (Homo sapiens, UniProt P34998, I163A)
T2 construct: made in house; host or cells: HEK293T cells, transient
T2 sequence (P34998 24-415 I163A): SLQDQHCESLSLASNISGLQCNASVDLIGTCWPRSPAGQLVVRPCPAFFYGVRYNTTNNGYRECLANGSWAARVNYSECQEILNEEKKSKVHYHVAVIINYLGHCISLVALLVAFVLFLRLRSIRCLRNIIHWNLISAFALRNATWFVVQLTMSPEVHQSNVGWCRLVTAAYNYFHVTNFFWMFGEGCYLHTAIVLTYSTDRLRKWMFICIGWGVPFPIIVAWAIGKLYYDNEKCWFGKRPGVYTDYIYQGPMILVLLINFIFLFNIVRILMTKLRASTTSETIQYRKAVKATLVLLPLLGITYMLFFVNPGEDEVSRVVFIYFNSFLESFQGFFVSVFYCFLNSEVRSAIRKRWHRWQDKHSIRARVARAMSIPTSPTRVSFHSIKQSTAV

B1: OX2Y91L (protein, UniProt O43614 1-444, looked up, variant Y91L)
Orexin receptor type 2: T1 sequence (O43614 1-444 F28L/Y91L/I308V) with L28F, V308I
B2: CRF1 I163A: human CRF1 mutant, I2.58 to alanine (I163A) (protein, UniProt P34998 24-415, looked up, variant I163A)
Corticotropin-releasing …: T2 sequence (P34998 24-415 I163A)

Experiments:
OX2 receptor [1] = assay: Thermostability of OX2 receptor bound to antagonist EMPA; assay type: physicochemical, human; details: bound to antagonist EMPA
Protocol: (§1) Transiently transfected mammalian cells expressing M4 were harvested about 40 hours post transfection and the receptors were solubilised in 50 mM Tris pH 7.5/250 mM NaCl/1% DDM/EDTA free protease inhibitor mix for 1 hour rotating at 4° C. The solubilised lysate was then cleared by centrifugation at 13000 rpm for 15 minutes at 4° C. The solubilised receptors were then purified on Ni-NTA beads and eluted with 100 mM histidine. The eluted receptor was used in radioligand binding assay. Thermostability of M4 was measured using 25 μL of purified receptor mixed with 95 μL of 12 nM [^3H]-NMS (final concentration of 10 nM). The sample was incubated for 60 min at 4° C., then 30 min at the specified temperature and then 30 min at 4° C. Receptor bound and free radioligand were separated using a 96-well plate gel filtration assay.
(§2) A tandem alanine and leucine scanning mutagenesis strategy was used to identify mutations that enhanced the thermostability of OX2 bound to the small-molecule antagonist EMPA.
(§3) Thermostability assays were preformed on partially purified receptors as described for M4, with the following amendments. Cell lysates were solubilised in 50 mM Tris pH7.4, 150 mM NaCl, 1% DDM supplemented with 1× complete EDTA free protease inhibitor cocktail (Roche). Radioligand binding reactions were set up using 1/10 volume eluted receptor mixed with 20 nM ^3H-EMPA (final concentration) per temperature point.

OX2 receptor [2] = target: T1, OX2 receptor; assay: as above; assay type: physicochemical; details: antagonist EMPA bound, compared to WT OX2
Protocol: as §1, §2, §3

CRF1 [3] = target: T2, CRF1; assay: Thermostability of CRF1 bound to antagonist CP-376395, purified in DDM; assay type: physicochemical; details: antagonist CP-376395 bound, versus CRF1 WT
Protocol: (§4) In order to stabilise CRF1 in the antagonist conformation, a systematic alanine-scan was performed to identify mutations that stabilise receptors bound to the antagonist ligand CP-376395. Mutating I2.58 to alanine (I163A) confers significant stabilisation in CRF1, increasing the thermal stability by 3.9 (±0.5)° C. (FIG. 15).
(§5) CRF1 receptors were transiently expressed in HEK293T cells on 10 cm plates using GeneJuice transfection reagent used according to manufacturers guidelines.
(§6) Cells expressing CRF1 were harvested in PBS approximately 40 hours post-transfection and re-suspended in 950 μl Re-suspension buffer (50 mM Tris-HCl, 150 mM NaCl, 2× Complete EDTA-free Protease inhibitor cocktail (Roche), pH7.5). Cells were incubated with 120 nM CP-376395 and 30 nM [^3H]-CP-376395 at 37° C. for 2 hours before transferring to ice for 5 minutes. The receptors were solubilised by the addition of 1% DDM and incubated at 4° C. for 1 hour with gentle agitation. Insoluble material was removed by centrifugation at 16000×g for 10 minutes at 4° C. The solubilised receptors were partially purified with Ni-NTA agarose (Qiagen). Ni-NTA resin was equilibrated in Equilibration buffer (50 mM Tris-HCl, 150 mM NaCl, 2× Complete EDTA-free Protease inhibitor cocktail (Roche), 0.025% DDM, pH7.5) and 400 μl of a 50:50 resin slurry was added to each sample. Resin slurries were incubated at 4° C. for 1 hour 30 minutes with gentle agitation to bind receptors. Resin slurries were then transferred to a batch column filter plate (Chromabond) and centrifuged at 1000×g for 1 minute, discarding the flow-through. Resin was washed twice with 1 ml of Wash buffer (50 mM Tris-HCl, 150 mM NaCl, 2× Complete EDTA-free Protease inhibitor cocktail (Roche), 0.025% DDM, 20 mM Imidazole, pH7.5) and then eluted in 1 ml of Elution buffer (50 mM Tris-HCl, 150 mM NaCl, 2× Complete EDTA-free Protease inhibitor cocktail (Roche), 0.025% DDM, 100 mM histidine, 30 nM [^3H]-CP-376395, 120 nM CP-376395, pH7.5) by resuspension at 4° C. for 30 minutes. Eluted samples were used directly in the thermostability assay. […]

CRF1 [4] = assay: as above; assay type: physicochemical, human; details: antagonist-bound state (CP-376395), purified in DDM
Protocol: as §4, §5, §6

Molecule	Tm (OX2 receptor [1]) [°C]	increase of Tm (OX2 receptor [2]) [°C]	increase of thermal stability (CRF1 [3])	Tm (CRF1 [4]) [°C]
B1	29.69	1		
B2			3.9 (±0.5) ° C.	30.7
